Results from publication doi:10.1101/2022.06.29.497979, “Cryo-EM structure of a eukaryotic zinc transporter at a low pH suggests its Zn^2+-releasing mechanism” (bioRxiv, 2022).

Target: the molecule itself
Assay: cryo-EM structure; xtZnT8-Zn^2+: single-particle cryo-EM, 20 mM Tris-HCl pH 7.5, 150 mM NaCl, 5 mM beta-mercaptoethanol, 0.5 mM DDM, 1 mM ZnSO4; 3.9 A

B1: ZnT8 from Xenopus tropicalis, xtZnT8-BRIL fusion protein (natural protein, UniProt Q5XHB4 1-374, looked up)
chain: MKGSEEAYLVSDKATKMYSLTKDSEKNHPSKPPLQDEENPQSKYHCHNNNKKAYDARQREQTFAKKKLCIASLICFVFISAEIVGGYIAGSLAVVTDAAHLLVDLSSFFISLCSLWLSSKSSTTRLTFGWHRAEILGALMSVITIWLVTGVLVYLACERLIRPDYTIDGTVMLITSACALGANLVLALILHQSGHGHSHAGGKHEHMASEYKPQTNASIRAAFIHVIGDLFQSISVLISALIIYFKPEYKMADPICTFIFSIFVLITTVTVLRDLLTVLMEGTPRGIHYSDVKQSILAVDGVKSVHSLHLWALTMNQVILSAHIATDIVGESKRILKDVTQNVFARFPFHSVTIQVEPIEDQSPECMFCYEPTQ
notes: Zinc transporter 8 (ZnT8, SLC30A8) from Xenopus tropicalis, full-length wild type, NCBI NP_001011041.1; BRIL was fused to the carboxy-end of xtZnT8 before the TEV site and His10; it is written as a carrier under tags; also called zinc transporter 8; xtZnT8-Zn^2+; not shown: BRIL (bacterial cytochrome b562RIL), C-terminal, kept
For B1, the “stoichiometry N” value was 2.
